# Measured values published in the nanobody polyreactivity screen of Harvey et al. (2022).
# Test: yeast display, Sf9 membrane polyspecificity reagent, FACS + sequencing; frameworks hold sequencing errors
# In short: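 Galactose induction of a Saccharomyces cerevisiae BJ5465 synthetic nanobody display library ran 36–48 hours. The cells were then stained for 1 hour at 4 °C with 10% biotinylated, detergent-solubilized Sf9 membrane reagent, pulled down on streptavidin microbeads and FACS-sorted into low and high (top ~1%) gates on expression and reagent-binding fluorescence. Labels for polyreactivity follow the gate of origin.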
row,Sequence,polyreactivity (PSR sort gate)
1,QVQLVESGGGLVQAGGSLRLSCAASGSTFSGYAKGWYRQAPGTEWELVAAINWNGGRTYYADSVKGRFTISRDNAKNTVYLQMNSLKPEDTAVYYCNAVTRAAYWWTARSTDYDYWGQGTQVTVSS,high polyreactivity
2,QVQLVESGGGLVQAGGSLRLSCAASGSTFSGYAMGWYRQAPGKERELVAAITSDGSTYYADSVKGRFTISRDNAKNTVYLQMNSLKPEDTAVYYCAVGIPYRGRQGYYGYYTYDYWGQGTQVTVSS,high polyreactivity
3,QVQLVESGGGLVQAGGSLRLSCAASGSTFSGYAMGWYRQAPGKERELVATISGGGSTYYADSVKGRFTISRDNAKNTVYLQMNSLKPEDTAVFYCNAQGYGIFTSSLDYWGQGTQVTVSS,low polyreactivity
4,QVQLVESGGGLVQAGGSLRLSCAASGSTFSHNAMGWYRQAPGKERELVAAISSDGTTYYADSVKGRFTISRDNAKNTVYLQMNSLKPEDTAVYYCNKTRWTQRTSFDYWGQGTQVTVSS,low polyreactivity
5,QVQLVESGGGLVQAGGSLRLSCAASGSTFSHYAMGWYRQAPGKERELVATITGTGVRTYYADSVKGRFTISRDNAKNTVYLQMNSLKPEDTAVYYCAVPPSKRGAQAQPWMDYWGQGTQVTVSS,low polyreactivity
6,QVQLVESGGGLVQAGGSLRLSCAASGSTFSINAMGWYRQAPGKERELVAAITWRGVRTYYADSVKGRFTISRDNAKNTVYLQMNSLKPEDPAVYYCAAVPATSYPRRYVYAYYYWGQGTQVTVSS,high polyreactivity
7,QVQLVESGGGLVQAGGSLRLSCAASGSTFSIYAMGWYRKAPGKERELVAAISTDGGSTNYADSVKGRFTISRDNAKNTVYLQMNILKPEDTAVYYCAADTYWYLSPYDYWGQGTQVTVSS,low polyreactivity
8,QVQLVESGGGLVQAGGSLRLSCAASGSTFSIYTMGWYRQAPGKERELVAAINTGDGDTYYADSVKGRFTISRDNAKNTFYLQMNSLKPEDTAVYYCAAVYSQLSNLYYYWGQGTQVTVSS,low polyreactivity
9,QVQLVESGGGLVQAGGSLRLSCAASGSTFSLYALGWYRQAPGKERELVAAITRGGNTYYADSVKGRFTISRDNAKNTVYLQMNSLKPEDTAVYYCNAVFPKTRSYAYGYWGQGTQVTVSS,high polyreactivity
10,QVQLVESGGGLVQAGGSLRLSCAASGSTFSLYAMGWYRQAPGKERELVAAISWSDGSTYYADSVKGRFTISRDNAKNTVYLQMNSLKPEDTAVYYCAAESTVRPYEHSGDYWGQGTQVTVSS,low polyreactivity
11,QVQLVESGGGLVQAGGSLRLSCAASGSTFSLYAMGWYRQAPGKERELVARISYTDGSTYYADSVKGRFTISRDNAKNTVYLQMNSLKPEDTAVYYCAAEAWYSYTLEDYWGQGTQVTVSS,low polyreactivity
12,QVQLVESGGGLVQAGGSLRLSCAASGSTFSLYVMGWYRQAPGKEREFVATINWRTVSTYYADSVKGRFTISRDNAKKTVYLQMNSLIPEDTAVYYCNAVSYPPDGTYDYWGQGTQVTVSS,low polyreactivity
13,QVQLVESGGGLVQAGGSLRLSCAASGSTFSNYAMGWYRQAPGKERELVASISNGGSTNYADSVKGRFTISRDNAKNTVYLQMNSLKPEDTAVYYCNAESKAKYDYWGQGTQVTVSS,low polyreactivity
14,QVQLVESGGGLVQAGGSLRLSCAASGSTFSPYAMGWYRQAPGKERELVAAINYSSGSTYYADSVKGRFTISRDNAKNTVYFQMNSLKTEDTAVYYCAKGWYAGYPYDYWGQGTQVTVSS,low polyreactivity
15,QVQLVESGGGLVQAGGSLRLSCAASGSTFSPYAMGWYRQAPGKERELVANITISGGSTYYADSVKGRFTISRDNAKNTVYIQMNSLKPEDTAVYYCNADSLIRWLFTVVIFDYWGQGTLVTVSS,low polyreactivity
16,QVQLVESGGGLVQAGGSLRLSCAASGSTFSPYAMGWYRQAPGKERELVANITISGGSTYYADSVKGRFTISRDNAKNTVYLQMNSLKPEDTAVYFCNADSLIRWLFTVVIFDYWGQGTQVTVSS,low polyreactivity
17,QVQLVESGGGLVQAGGSLRLSCAASGSTFSQNALGWYRQAPGKDRELVAAITSGGITYYADSVKGRFTMSRDNAKNTVYLQMNSLKPEDTAVYYCAADFWPSGRGVAFDYWGQGTQVTVSS,low polyreactivity
18,QVQLVESGGGLVQAGGSLRLSCAASGSTFSRNAMGWYRQAPGKERELVAAISWRGGRTYYADSVKGRFTISRDNAKNTVYLQMNSLKPEDTAVYYCAAEHKYRYDYWGQGTQVTVSS,low polyreactivity
19,QVQLVESGGGLVQAGGSLRLSCAASGSTFSRNAMGWYRQAPGKERELVAAITLRGTNTYYADSVKGRFTISRDNAKNTVYLQMNSLKPEDTAVYYCAALRRGSGRYDMDYWGQGTQVTVSS,high polyreactivity
20,QVQLVESGGGLVQAGGSLRLSCAASGSTFSRNASGWYRQAPGKERELVAAISRRGDTTYYADSVKGRFTISRDNAKNTVYLQMNSLKPEDTAVYYCNRLTIGSSSYDYWGQGTQVTVSS,high polyreactivity
21,QVQLVESGGGLVQAGGSLRLSCAASGSTFSRYAMGWYRQAPGKEMELVAAITGSGGNTYYADSVKGRFTISRDNAKNTVYLQMNSLKPEDTAVYYCAAEDYVGWYNFEYWGQGTQVTVSS,high polyreactivity
22,QVQLVESGGGLVQAGGSLRLSCAASGSTFSRYAMGWYRQAPGKEREFGAAISRRAGGTYYADSVKGRFTISRDNAKNTVYLQMNSLKPEDTAVYYCAKVLPRDYIGRATYDYWGQGTQVTVSS,high polyreactivity

row,Sequence,polyreactivity (PSR sort gate)
1,QVQLVESGGGLVQAGGSLRLSCAASGSTFSRYAMGWYRQAPGKERELVAAISSRGGSTYYADSVKGRFTISRDNAKNTVYLQMNSLKPEDTAVYYCNALTSYQNHVYPYDYWGQGTEVTVSS,high polyreactivity
2,QVQLVESGGGLVQAGGSLRLSCAASGSTFSRYAMGWYRQAPGKERELVAAITRSGGGTHYADSVKGRFTISRDNAKNTVYLQMNSLKPEDTAVYYCATDYTKYPTGYYYWGQGTQVTVSS,low polyreactivity
3,QVQLVESGGGLVQAGGSLRLSCAASGSTFSRYSMGWYRQAPGKERELVAAITGRGGRTYYADSVKGRFTISRDNAKKTVYLQLNSLKPEDTAVYYCAAYYGPYRSLYYYWGQGNQVTVSS,high polyreactivity
4,QVQLVESGGGLVQAGGSLRLSCAASGSTFSRYTMGWYRQAPGKERELVAVITRRGGSTYYADSVKGRFTISRDNAKNTVYLQMNSLKPADTAVYYCAADYKYPIDYGYWGQGTQVTVSS,high polyreactivity
5,QVQLVESGGGLVQAGGSLRLSCAASGSTFSSNAMGWYRQAPGKEREFVAAISRRTGSTYYADSVKGRFTISRDNANNTVYLQMNSLKPEDTAVYYSAATGEKLARSSFGYWGQGTQVTVSS,low polyreactivity
6,QVQLVESGGGLVQAGGSLRLSCAASGSTFSSNAMGWYRQAPGKERELVAAISKRGGRTYYADSVKGRFTISRDNAKNTVYLQMNSLKPEDTAVYYCAKDYSSAVDYWGQGTQVTVSS,high polyreactivity
7,QVQLVESGGGLVQAGGSLRLSCAASGSTFSSYAMGWYRQAPGKERELVAAISSSGGTSTYADSVKGRFTISRDNAKNTVYLQMNSLKPEDTAVYYCAARQYRRLRDYRHDYWGQGTQVTVSS,high polyreactivity
8,QVQLVESGGGLVQAGGSLRLSCAASGSTFSSYAMGWYRQAPGKERELVAAISYSGGSTYYADSVKGRFTISRDNAKNTVYLQMNSLKPEDTAVYYCAAVGTWQHRSYGYWGQGTQVTVSS,high polyreactivity
9,QVQLVESGGGLVQAGGSLRLSCAASGSTFSSYAMGWYRQAPGKERELVAAITSGTRTYYADSVKGRFTISRDNAKNTVYFQMNSLKPEDTAVYYCAAPTSSSGRYHRYYYWVQGTQVTVSS,high polyreactivity
10,QVQLVESGGGLVQAGGSLRLSCAASGSTFSSYAMGWYRQAPGKERELVAAITSRGSRTFYADSVKGRFTISRDNAKNTVYLQMNSLKPEDTAVYYCAAYFRIGTFGQYDYWGQGTQVTVSS,high polyreactivity
11,QVQLVESGGGLVQAGGSLRLSCAASGSTFSSYGMGWYRQAPGKERELVAAISKRGGSTYYADSVKGRFTISRDNAKNTVYLQMNSLKPEDTAVYYCAARYRLYYYFRFDWGQGTHVTVSS,high polyreactivity
12,QVQLVESGGGLVQAGGSLRLSCAASGSTFSSYVMGWYRQAPGKERELVAGITRGGRTYYADSVKGRFTISRDNAKNTGYLQMNSLKPEDTAVYYCAKDQGGVHELDYWGQGTQVTVSS,low polyreactivity
13,QVQLVESGGGLVQAGGSLRLSCAASGSTFSTYAMGWYRQAPGKERELVARITRSDTGTYYADSVKGRFTISRDNAKNTVYLQMNSLKPEDTAVYYCAADGWYDDSGWYYGYDYWGQGTQVTVSS,low polyreactivity
14,QVQLVESGGGLVQAGGSLRLSCAASGSTFSVYAMGWYRQAPGKERELVARITGGSTYADSVKGRFTISRDNAKNTVYLQMNSLKPEDTAVYFCNAYRYWSPGYDYWGQGTQVTVSS,low polyreactivity
15,QVQLVESGGGLVQAGGSLRLSCAASGSTFSWNTMGWYRQAPGKERELVADIRTSGGGTYYADSVKGRFTISRDNAKNSVYLQMNSLKPEDTAVYYCNGDPKWEMVSWGQGTQVTVSS,low polyreactivity
16,QVQLVESGGGLVQAGGSLRLSCAASGSTFSWYAMGWYRQAPGKERELVASISWRGGSTYYADSVKGRFTISRDNAKNTVSLQMNSLKPEDTAVYYCAADYDWKLFHEPPAVYDYDYWGQGTQVTVSS,low polyreactivity
17,QVQLVESGGGLVQAGGSLRLSCAASGSTFSYNAMGWYRQAPGKERELVAAIDANGGSTYYADSVKGRFTISRDNAKNTVYVQMNSLKPEDTAVYYCAAAGYWYYYVPNDSWGQGTQVTVSS,low polyreactivity
18,QVQLVESGGGLVQAGGSLRLSCAASGSTFSYNAMGWYRQAPGKERELVAAIRWGGGSTYYADSVKGRFTISCDNAKNTVYLQMNSLKPEDTAVYYCARYGYRRVGSRWAEFDYWGQGTQVTVSS,high polyreactivity
19,QVQLVESGGGLVQAGGSLRLSCAASGSTFSYNAMGWYRQAPGKERELVAAISRGGITNYADSVKGRFTISRDNAKNTVYLQMNSLKPEDTAVYYCAVRHVWPWQGYDYWGQGTQVTVSS,low polyreactivity
20,QVQLVESGGGLVQAGGSLRLSCAASGSTFSYNAMGWYRQAPGKERELVAAITSSGSSTYYADSVKGRFTISRYNAKNTVYLQMNSLKPEDTAVYYCNAEVLFVAGQVQRNSGDYWGQGTQVTVSS,low polyreactivity
21,QVQLVESGGGLVQAGGSLRLSCAASGSTFSYNAMGWYRQAPGKERELVASISTSGGSTYYADSVKGRFTISRDNAKNTVYLQMNSLKPEDTAVYYCNAPTSDMYSDFDYWGQGTQVTVSS,low polyreactivity
